What was measured:
[1] = target: PD-1 (Homo sapiens (Human)) (UniProt Q15116); assay: flow cytometry, Jurkat/PD-1 cells
[2] = target: PD-1 (Homo sapiens (Human)) (UniProt Q15116); assay: flow cytometry, Jurkat/PD-1 cells; vs wildtype PD-L2 IgV-Fc

Chain of PD-1 (Homo sapiens (Human)) (Q15116 21-288 limits assumed): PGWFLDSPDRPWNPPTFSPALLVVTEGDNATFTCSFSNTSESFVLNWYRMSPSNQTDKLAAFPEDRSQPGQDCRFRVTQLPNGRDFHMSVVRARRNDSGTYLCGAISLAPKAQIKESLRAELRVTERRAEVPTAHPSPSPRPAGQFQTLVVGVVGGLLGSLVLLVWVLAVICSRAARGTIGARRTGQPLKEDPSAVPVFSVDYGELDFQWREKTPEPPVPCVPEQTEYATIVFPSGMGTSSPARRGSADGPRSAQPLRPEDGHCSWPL

Row | Binder | MFI at 50 nM [1] | Fold increase over wildtype PD-L2 IgV-Fc [2]
1 | variant PD-L2 IgV-Fc N24D (Fc fusion, not shown: a dimerising Fc or GST; small tags and cut ends) LFTVTVPKELYIIEHGSNVTLECDFDTGSHVNLGAITASLQKVENDTSPHRERATLLEEQLPLGKASFHIPQVQVRDEGQYQCIIIYGVAWDYKYLTLK | 1410 | 0.14 fold
2 | variant PD-L2 IgV-Fc H15Q, S39I, S67L, V89D (Fc fusion, not shown: a dimerising Fc or GST; small tags and cut ends) LFTVTVPKELYIIEQGSNVTLECNFDTGSHVNLGAITAILQKVENDTSPHRERATLLEEQLPLGKALFHIPQVQVRDEGQYQCIIIYGDAWDYKYLTLK | 45500 | 4.62 fold
3 | variant PD-L2 IgV-Fc H15Q, T47A, Q82R (Fc fusion, not shown: a dimerising Fc or GST; small tags and cut ends) LFTVTVPKELYIIEQGSNVTLECNFDTGSHVNLGAITASLQKVENDASPHRERATLLEEQLPLGKASFHIPQVQVRDEGQYRCIIIYGVAWDYKYLTLK | 65200 | 6.62 fold
4 | variant PD-L2 IgV-Fc I13V, H15Q, E44D, V89D (Fc fusion, not shown: a dimerising Fc or GST; small tags and cut ends) LFTVTVPKELYIVEQGSNVTLECNFDTGSHVNLGAITASLQKVDNDTSPHRERATLLEEQLPLGKASFHIPQVQVRDEGQYQCIIIYGDAWDYKYLTLK | 24000 | 2.43 fold
5 | variant PD-L2 IgV-Fc H15Q, K65R (Fc fusion, not shown: a dimerising Fc or GST; small tags and cut ends) LFTVTVPKELYIIEQGSNVTLECNFDTGSHVNLGAITASLQKVENDTSPHRERATLLEEQLPLGRASFHIPQVQVRDEGQYQCIIIYGVAWDYKYLTLK | 13500 | 1.37 fold
6 | variant PD-L2 IgV-Fc H15Q, T47A, Q72H, R76G, I86T (Fc fusion, not shown: a dimerising Fc or GST; small tags and cut ends) LFTVTVPKELYIIEQGSNVTLECNFDTGSHVNLGAITASLQKVENDASPHRERATLLEEQLPLGKASFHIPHVQVGDEGQYQCIITYGVAWDYKYLTLK | 32100 | 3.26 fold
7 | variant PD-L2 IgV-Fc V89D (Fc fusion, not shown: a dimerising Fc or GST; small tags and cut ends) LFTVTVPKELYIIEHGSNVTLECNFDTGSHVNLGAITASLQKVENDTSPHRERATLLEEQLPLGKASFHIPQVQVRDEGQYQCIIIYGDAWDYKYLTLK | 3360 | 0.34 fold
8 | variant PD-L2 IgV-Fc Q82R, V89D (Fc fusion, not shown: a dimerising Fc or GST; small tags and cut ends) LFTVTVPKELYIIEHGSNVTLECNFDTGSHVNLGAITASLQKVENDTSPHRERATLLEEQLPLGKASFHIPQVQVRDEGQYRCIIIYGDAWDYKYLTLK | 45000 | 4.57 fold
9 | variant PD-L2 IgV-Fc H15Q, N32D, S67L, V89D (Fc fusion, not shown: a dimerising Fc or GST; small tags and cut ends) LFTVTVPKELYIIEQGSNVTLECNFDTGSHVDLGAITASLQKVENDTSPHRERATLLEEQLPLGKALFHIPQVQVRDEGQYQCIIIYGDAWDYKYLTLK | 25900 | 2.63 fold
10 | variant PD-L2 IgV-Fc I13V, Q72H, R76G, I86T (Fc fusion, not shown: a dimerising Fc or GST; small tags and cut ends) LFTVTVPKELYIVEHGSNVTLECNFDTGSHVNLGAITASLQKVENDTSPHRERATLLEEQLPLGKASFHIPHVQVGDEGQYQCIITYGVAWDYKYLTLK | 10400 | 1.06 fold
11 | variant PD-L2 IgV-Fc H15Q, T47A, Q72H, R76G (Fc fusion, not shown: a dimerising Fc or GST; small tags and cut ends) LFTVTVPKELYIIEQGSNVTLECNFDTGSHVNLGAITASLQKVENDASPHRERATLLEEQLPLGKASFHIPHVQVGDEGQYQCIIIYGVAWDYKYLTLK | 16500 | 1.68 fold
12 | variant PD-L2 IgV-Fc H15Q, E44D, R76G, I85F (Fc fusion, not shown: a dimerising Fc or GST; small tags and cut ends) LFTVTVPKELYIIEQGSNVTLECNFDTGSHVNLGAITASLQKVDNDTSPHRERATLLEEQLPLGKASFHIPQVQVGDEGQYQCIFIYGVAWDYKYLTLK | 2880 | 0.29 fold
13 | variant PD-L2 IgV-Fc S67L, I85F (Fc fusion, not shown: a dimerising Fc or GST; small tags and cut ends) LFTVTVPKELYIIEHGSNVTLECNFDTGSHVNLGAITASLQKVENDTSPHRERATLLEEQLPLGKALFHIPQVQVRDEGQYQCIFIYGVAWDYKYLTLK | 529 | 0.05 fold
14 | variant PD-L2 IgV-Fc N32D, S67L, V89D (Fc fusion, not shown: a dimerising Fc or GST; small tags and cut ends) LFTVTVPKELYIIEHGSNVTLECNFDTGSHVDLGAITASLQKVENDTSPHRERATLLEEQLPLGKALFHIPQVQVRDEGQYQCIIIYGDAWDYKYLTLK | 31800 | 3.23 fold
15 | variant PD-L2 IgV-Fc H15Q, S67L, R76G (Fc fusion, not shown: a dimerising Fc or GST; small tags and cut ends) LFTVTVPKELYIIEQGSNVTLECNFDTGSHVNLGAITASLQKVENDTSPHRERATLLEEQLPLGKALFHIPQVQVGDEGQYQCIIIYGVAWDYKYLTLK | 47200 | 4.8 fold
16 | variant PD-L2 IgV-Fc H15Q, S67L, R76G, I85F (Fc fusion, not shown: a dimerising Fc or GST; small tags and cut ends) LFTVTVPKELYIIEQGSNVTLECNFDTGSHVNLGAITASLQKVENDTSPHRERATLLEEQLPLGKALFHIPQVQVGDEGQYQCIFIYGVAWDYKYLTLK | 2870 | 0.29 fold
17 | variant PD-L2 IgV-Fc I13V, S39I, E44D, Q82R, V89D (Fc fusion, not shown: a dimerising Fc or GST; small tags and cut ends) LFTVTVPKELYIVEHGSNVTLECNFDTGSHVNLGAITAILQKVDNDTSPHRERATLLEEQLPLGKASFHIPQVQVRDEGQYRCIIIYGDAWDYKYLTLK | 71400 | 7.26 fold
18 | variant PD-L2 IgV-Fc S67L, V89D (Fc fusion, not shown: a dimerising Fc or GST; small tags and cut ends) LFTVTVPKELYIIEHGSNVTLECNFDTGSHVNLGAITASLQKVENDTSPHRERATLLEEQLPLGKALFHIPQVQVRDEGQYQCIIIYGDAWDYKYLTLK | 16000 | 1.62 fold
19 | variant PD-L2 IgV-Fc I13V, H15Q, T47A, Q72H, R76G (Fc fusion, not shown: a dimerising Fc or GST; small tags and cut ends) LFTVTVPKELYIVEQGSNVTLECNFDTGSHVNLGAITASLQKVENDASPHRERATLLEEQLPLGKASFHIPHVQVGDEGQYQCIIIYGVAWDYKYLTLK | 73400 | 7.46 fold
20 | variant PD-L2 IgV-Fc I13V, H15Q, S67L, I86T (Fc fusion, not shown: a dimerising Fc or GST; small tags and cut ends) LFTVTVPKELYIVEQGSNVTLECNFDTGSHVNLGAITASLQKVENDTSPHRERATLLEEQLPLGKALFHIPQVQVRDEGQYQCIITYGVAWDYKYLTLK | 21600 | 2.19 fold
21 | variant PD-L2 IgV-Fc E44D (Fc fusion, not shown: a dimerising Fc or GST; small tags and cut ends) LFTVTVPKELYIIEHGSNVTLECNFDTGSHVNLGAITASLQKVDNDTSPHRERATLLEEQLPLGKASFHIPQVQVRDEGQYQCIIIYGVAWDYKYLTLK | 2930 | 0.3 fold
22 | variant PD-L2 IgV-Fc H15Q, Q72H, V89D (Fc fusion, not shown: a dimerising Fc or GST; small tags and cut ends) LFTVTVPKELYIIEQGSNVTLECNFDTGSHVNLGAITASLQKVENDTSPHRERATLLEEQLPLGKASFHIPHVQVRDEGQYQCIIIYGDAWDYKYLTLK | 12600 | 1.28 fold
23 | variant PD-L2 IgV-Fc E59G, Q82R (Fc fusion, not shown: a dimerising Fc or GST; small tags and cut ends) LFTVTVPKELYIIEHGSNVTLECNFDTGSHVNLGAITASLQKVENDTSPHRERATLLEGQLPLGKASFHIPQVQVRDEGQYRCIIIYGVAWDYKYLTLK | 12700 | 1.29 fold
24 | variant PD-L2 IgV-Fc I13V, E44D, Q82R, V89D (Fc fusion, not shown: a dimerising Fc or GST; small tags and cut ends) LFTVTVPKELYIVEHGSNVTLECNFDTGSHVNLGAITASLQKVDNDTSPHRERATLLEEQLPLGKASFHIPQVQVRDEGQYRCIIIYGDAWDYKYLTLK | 45200 | 4.59 fold
25 | variant PD-L2 IgV-Fc S39I, V89D (Fc fusion, not shown: a dimerising Fc or GST; small tags and cut ends) LFTVTVPKELYIIEHGSNVTLECNFDTGSHVNLGAITAILQKVENDTSPHRERATLLEEQLPLGKASFHIPQVQVRDEGQYQCIIIYGDAWDYKYLTLK | 26100 | 2.65 fold
26 | variant PD-L2 IgV-Fc H15Q, R76G, I85F (SEQ ID NO 1500) (Fc fusion, not shown: a dimerising Fc or GST; small tags and cut ends) LFTVTVPKELYIIEQGSNVTLECNFDTGSHVNLGAITASLQKVENDTSPHRERATLLEEQLPLGKASFHIPQVQVGDEGQYQCIFIYGVAWDYKYLTLK | 2940 | 0.3 fold
27 | variant PD-L2 IgV-Fc I13V, H15Q, R76G, I85F (Fc fusion, not shown: a dimerising Fc or GST; small tags and cut ends) LFTVTVPKELYIVEQGSNVTLECNFDTGSHVNLGAITASLQKVENDTSPHRERATLLEEQLPLGKASFHIPQVQVGDEGQYQCIFIYGVAWDYKYLTLK | 4740 | 0.48 fold
28 | variant PD-L2 IgV-Fc H15Q, S67L, Q72H, R76G, V89D (Fc fusion, not shown: a dimerising Fc or GST; small tags and cut ends) LFTVTVPKELYIIEQGSNVTLECNFDTGSHVNLGAITASLQKVENDTSPHRERATLLEEQLPLGKALFHIPHVQVGDEGQYQCIIIYGDAWDYKYLTLK | 40200 | 4.08 fold
29 | variant PD-L2 IgV-Fc S67L, I86T (Fc fusion, not shown: a dimerising Fc or GST; small tags and cut ends) LFTVTVPKELYIIEHGSNVTLECNFDTGSHVNLGAITASLQKVENDTSPHRERATLLEEQLPLGKALFHIPQVQVRDEGQYQCIITYGVAWDYKYLTLK | 6830 | 0.69 fold
30 | variant PD-L2 IgV-Fc H15Q (Fc fusion, not shown: a dimerising Fc or GST; small tags and cut ends) FTVTVPKELYIIEQGSNVTLECNFDTGSHVNLGAITASLQKVENDTSPHRERATLLEEQLPLGKASFHIPQVQVRDEGQYQCIIIYGVAWDYKYLTLK | 16000 | 1.63 fold

— US20200040059A1
